32 sequences from the supplement of paper PMC10201428 can be followed below.

± gives the standard deviation of the averaged measurements.

The subject of this series is VchCAST RNA-guided transposition machinery (E. coli BL21(DE3) host, lacZ target). Put plainly: relative integration efficiency (T-RL orientation) vs wild-type transposon end (log2 (normalized fold change)); transposon end mutated: right end (5 bp flank + 75 bp right end); higher = more efficient transposition. The method in brief:
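Relative integration efficiency is a fold change of output over input barcode abundance, normalised to reference barcodes and log-transformed. Input plasmids and genomic integration junctions were PCR-amplified and Illumina-sequenced from E. coli BL21(DE3) co-transformed with a T7-driven effector plasmid and pUC57 donor pools of 1549 left-end or 1849 right-end transposon variants. Plating was done with 0.1 mM IPTG at 37°C for 18 h, with two biological output replicates and four reference barcodes.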
On to “ACATTTGTTGATACAACCATAAAATCATCATTACACCCATCAATTGATAATTATCACACCCCATTTAACTATAACGCTCTGATCATAGTCAGACCAACATTGCTACGACCCGTATTCGCACCGACAC”, for which the “relative integration efficiency (log2)” value was -4.88 ± 0.26.

As for “ACATTTGTTGATACAACCATAAAATGATAATTACACCCATAAATTGATAATTATCACACCCATAAATTGATATTGCCTCTGATCATAGTCAGACCAACATTTGTGAGCGGATAACAAGCACCGACAC”, the “relative integration efficiency (log2)” value is -0.379 ± 0.087.

Consider “ACATTTGTTGATACAACCATAAAATGATAATTACACCCATAAATTGATAATTATCACACCCATAAATTGATATTGCCTCTGTACGATCCAGTGATCTCCAAGACGCTGCAAGAGTCCGCACCGACAC”, for which the “relative integration efficiency (log2)” value worked out at 0.0556 ± 0.23.

As for “ACATTTGTAAAAACAACCATAAAATGATAATTACACCCATAAATTGATAATTATCACACCCATAAATTGATATTGCCTCTGATCATAGTCAGACCAACATTGCTACGACCCGTATTCGCACCGACAC”, the “relative integration efficiency (log2)” value came to 0.25 ± 0.023.

Consider “ACATTTGTTGATACACCCATAAATTGATAATTACAACCATAAAATGATAATTATCACAACCATAAAATGATAATTACTCTGATCATAGTCAGACCAACATTGCTACGACCCGTATTCGCACCGACAC”, for which the “relative integration efficiency (log2)” value is -0.638 ± 0.31.

“ACATTTGTGGATCCAACCATAAAATGATAATTACACCCATAAATTCATAATTATCACACCCAATTTAACTATAACGCTCTGATCATAGTCAGACCAACATTGCTACGACCCGTATTCGCACCGACAC”: the “relative integration efficiency (log2)” value was -2.04 ± 0.41.

“ACATTTGTTGATACAACCATAAAATGATAATTACACCCATATTTTGATAATTATCACACCCATAAATTGATATTGCCTCTGATCATAGTCAGACCAACATTGCTACGACCCGTATTCGCACCGACAC”: the “relative integration efficiency (log2)” value is -0.188 ± 0.015.

On to “ACATTTGTTGATACAACCATAAAATGATAATTACACCCATAAAGGTCTAATTATCACACCCATAAATTGATATTGCCTCTGATCATAGTCAGACCAACATTGCTACGACCCGTATTCGCACCGACAC”, for which the “relative integration efficiency (log2)” value is -1.77 ± 0.13.

With “ACATTTGTTGATACAACCATAAAATGATAATTACACCCATAAATTGATAAGGCGCACACCCATAAATTGATATTGCCTCTGATCATAGTCAGACCAACATTGCTACGACCCGTATTCGCACCGACAC”, the “relative integration efficiency (log2)” value was -0.436 ± 0.083.

Regarding “ACATTTGTTGATCCAACCATAAAATGATAATTACACCCATAAATTGATCATTATCACACCCAATTTAACTATAACGCTCTGATCATAGTCAGACCAACATTGCTACGACCCGTATTCGCACCGACAC”, the “relative integration efficiency (log2)” value was -1.7 ± 0.3.

Regarding “ACATTTGTTGATACAACCATAAAATGATCATTACCCCCATAAATTGATAATTATCCCACCCCATTTAACTATAACGCTCTGATCATAGTCAGACCAACATTGCTACGACCCGTATTCGCACCGACAC”, the “relative integration efficiency (log2)” value is -1.91 ± 0.36.

For “ACATTTGTTCATACAACCCTAAAATGATAATTACACCCATAAATGGATCATTATCACACCCAATTTAACTATAACGCTCTGATCATAGTCAGACCAACATTGCTACGACCCGTATTCGCACCGACAC”, the “relative integration efficiency (log2)” value is -5 ± 0.2.

Turning to “ACATTTGTTGATACTACCATTTAATGATAATAACACCCATAAAATGATAATTATCACACCCAATTTAACTATAACGCTCTGATCATAGTCAGACCAACATTGCTACGACCCGTATTCGCACCGACAC”, the “relative integration efficiency (log2)” value was -1.01 ± 0.18.

With “ACATTTGTTGATACAACCATAAGTTGATATTTTCAACCATAAGTTGATATTTTTCACAACCATAAGTTGATATTTTCTCTGATCATAGTCAGACCAACATTGCTACGACCCGTATTCGCACCGACAC”, the “relative integration efficiency (log2)” value turned out to be 0.214 ± 0.079.

As for “ACATTTGTTGATACAACCATAAAGTGATATTTACACCCATAAATTGATAATTATCACAACCATAAAATGATAATTACTCTGATCATAGTCAGACCAACATTGCTACGACCCGTATTCGCACCGACAC”, the “relative integration efficiency (log2)” value is 0.256 ± 0.0071.

As to “ACATTTGTTGATACAACGTTAAAATGATAATTACACCCATAAATTGATAATTATCACACCCATAAATTGATATTGCCTCTGATCATAGTCAGACCAACATTGCTACGACCCGTATTCGCACCGACAC”, the “relative integration efficiency (log2)” value was -0.928 ± 0.01.

Consider “ACATTTGGGTCTACAACCATAAAATGATAATTACACCCATAAATTGATAATTATCACACCCATAAATTGATATTGCCTCTGATCATAGTCAGACCAACATTGCTACGACCCGTATTCGCACCGACAC”, for which the “relative integration efficiency (log2)” value is -7.19 ± 1.1.

As to “ACATTTGTTGATACACCCATAAATTGATATTGCCAACCATAAGTTGATATTTTTCAGTGGGTATTTAACTATAACGCTCTGATCATAGTCAGACCAACATTGCTACGACCCGTATTCGCACCGACAC”, the “relative integration efficiency (log2)” value was -1.31 ± 0.4.

Regarding “ACATTTGTTGATACAACCATAAAGTGATATTTACACCCATAAATTGATATTGCTCACAACCATATATTGATATCTCCTCTGATCATAGTCAGACCAACATTGCTACGACCCGTATTCGCACCGACAC”, the “relative integration efficiency (log2)” value is -0.534 ± 0.18.

On to “TATAATGTTGATACAACCATAAAATGATAATTACACCCATAAATTGATAATTATCACACCCATAAATTGATATTGCCTCTGATCATAGTCAGACCAACATTGCTACGACCCGTATTCGCACCGACAC”, for which the “relative integration efficiency (log2)” value was -0.277 ± 0.026.

For “ACATTTGTTCATCCAACCATAAAATGATAATTACACCCATAAATGGATCATTATCACACCCAATTTAACTATAACGCTCTGATCATAGTCAGACCAACATTGCTACGACCCGTATTCGCACCGACAC”, the “relative integration efficiency (log2)” value is -2.36 ± 0.26.

Regarding “ACATTTGTTGATACAACCATAAAGTGATATTTACAACCATAAAGTGATATTTATCACAACCATAAAGTGATATTTACTCTGATCATAGTCAGACCAACATTGCTACGACCCGTATTCGCACCGACAC”, the “relative integration efficiency (log2)” value was 0.0208 ± 0.11.

As to “ACATTTGTTCATACAACCATAAAACGATAATTACACCCATAAATTCATCATTATCACACCCAATTTAACTATAACGCTCTGATCATAGTCAGACCAACATTGCTACGACCCGTATTCGCACCGACAC”, the “relative integration efficiency (log2)” value was -2.49 ± 0.11.

On to “ACATTTGTTGATACAACCATAAAATGATAATTACACCCATAAATTGATATATATCACACCCATAAATTGATATTGCCTCTGATCATAGTCAGACCAACATTGCTACGACCCGTATTCGCACCGACAC”, for which the “relative integration efficiency (log2)” value is -0.313 ± 0.16.

As to “ACATTTGTTGATACAACCATAAAATGATAATTACACCCATAAATTGATAATTATCACACCCATAAATTGATATTCTCTGATCATAGTCAGACCAACATTGCTACGACCCGTATTCGCACCGACACTG”, the “relative integration efficiency (log2)” value was -0.0876 ± 0.015.

For “ACATTTGTTGATACAACCATAAAAGGATCATTACCCCCATAAATTGATAATTATCACACCCAATTTAACTATAACGCTCTGATCATAGTCAGACCAACATTGCTACGACCCGTATTCGCACCGACAC”, the “relative integration efficiency (log2)” value was -2.28 ± 0.24.

Turning to “ACATTTGTTGATAACCAACGCCCCGTCGCCGGCACAAACGCCCGGTCGCCGGCTCACACCCATAAATTGATATTGCCTCTGATCATAGTCAGACCAACATTGCTACGACCCGTATTCGCACCGACAC”, the “relative integration efficiency (log2)” value is -7.79 ± 0.73.

On to “ACATTTCTGGATACAACCATAAAATGATAATTACACCCATAAATGGATCATTATCACACCCAATTTAACTATAACGCTCTGATCATAGTCAGACCAACATTGCTACGACCCGTATTCGCACCGACAC”, for which the “relative integration efficiency (log2)” value is -3.09 ± 0.37.

On to “ACATTTGTCGATACAACCCTAAAATGATAATTACACCCATAAATTCATAATTATCACCCCCAATTTAACTATAACGCTCTGATCATAGTCAGACCAACATTGCTACGACCCGTATTCGCACCGACAC”, for which the “relative integration efficiency (log2)” value is -4.67 ± 0.055.

Consider “ACATTTCTGGATACAACCATAAAATGATAATTACACCCATAAATTCATAATTATCACACCCAATTTAACTATAACGCTCTGATCATAGTCAGACCAACATTGCTACGACCCGTATTCGCACCGACAC”, for which the “relative integration efficiency (log2)” value is -3.39 ± 0.26.

For “ACATTTGTTCATACAACCCTAAAATGATAATTACACCCATAAATTGATCATTATCACCCCCAATTTAACTATAACGCTCTGATCATAGTCAGACCAACATTGCTACGACCCGTATTCGCACCGACAC”, the “relative integration efficiency (log2)” value is -2.63 ± 0.59.

For “ACATTTGTTGATACAACCATAAAATGATAATTACACCCATAAATTGATAATTATCACCAAACGCCCGGTCGCGGTAAGAGGATCATAGTCAGACCAACATTGCTACGACCCGTATTCGCACCGACAC”, the “relative integration efficiency (log2)” value was -0.505 ± 0.14.
